The results in this text go back to EP4484441A1 (Eberhard-Karls-Universität Tübingen, dated 2025).

This assay addresses T1, polypeptide 10 (human).
T1 construct: The empty single-chain polypeptide as secreted by WEHI-231 cells, about 50 kD; also called MHC-derived polypeptide; single continuous amino acid chain 12
The experiment in a line: inferred from peptide-dependent multimer staining of TCR-expressing Jurkat76 cells (flow cytometry). (In general: Flow cytometry measures light scatter and fluorescence of single cells or particles in a stream.)

T1 sequence (chain, as listed by the source limits assumed): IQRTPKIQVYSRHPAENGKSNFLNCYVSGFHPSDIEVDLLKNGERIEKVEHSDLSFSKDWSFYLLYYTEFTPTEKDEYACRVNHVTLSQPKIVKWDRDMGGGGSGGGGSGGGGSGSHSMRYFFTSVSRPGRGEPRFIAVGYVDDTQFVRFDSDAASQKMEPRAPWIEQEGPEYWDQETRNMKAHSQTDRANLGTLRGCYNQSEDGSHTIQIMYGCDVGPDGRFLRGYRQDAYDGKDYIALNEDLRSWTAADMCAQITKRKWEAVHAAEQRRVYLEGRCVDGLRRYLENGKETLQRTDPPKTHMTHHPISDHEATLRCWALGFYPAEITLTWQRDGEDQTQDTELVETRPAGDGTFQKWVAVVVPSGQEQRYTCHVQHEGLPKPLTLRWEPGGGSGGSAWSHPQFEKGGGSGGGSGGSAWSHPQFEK

Turning to LTDLGQNLLY [oligopeptide 26], the binding result is given as “binds”.
